Kd and residual binding activity with simvastatin (percent of the non-inhibited signal) data for two molecules are collected here from article PMC11853025.

Test [1] addresses iC3b (UniProt P01024). In words: SPR; C3b deposited on a CM5 chip (amine-coupled seed, then convertase-mediated deposition to about 5000 RU), iC3b and C3dg made from it on the chip; αI domains injected as dilution series, 120 s; Biacore T200, 25 °C; HBST (10 mM HEPES, 150 mM NaCl, 0.005% Tween-20, pH 7.4) with 1 mM MgCl2; Langmuir 1:1 fit, KD calculated.
Test [2] concerns the target iC3b (UniProt P01024). In words: SPR; competitive: αI domains at 5 µM preincubated with simvastatin (3-100 µM), injected over immobilised iC3b or ICAM-1; HBST with 1 mM MgCl2 and 5% DMSO; signal as percent of the non-inhibited signal. On the technique in general: In SPR one partner is held on a chip, and binding of the other changes the refractive index at the surface.

Residue numbers refer to the chain shown, from its start. In names and notes the source's numbering stands.

B1: CR4 αXI domain, wild type (WT) (domain or fragment)
chain: QEQDIVFLIDGSGSISSRNFATMMNFVRAVISQFQRPSTQFSLMQFSNKFQTHFTFEEFRRSSNPLSLLASVHQLQGFTYTATAIQNVVHRLFHASYGARRDAAKILIVITDGKKEGDSLDYKDVIPMADAAGIIRYAIGVGLAFQNRNSWKELNDIASKPSQEHIFKVEDFDALKDIQNQLKEKIFAI
For orientation: Kd means the equilibrium constant for the complex coming apart. B1: the dissociation constant (Kd) in test [1] is 33 µM.

B2: CR4 αXI domain, high-affinity (HA) variant p.I333G (domain or fragment)
chain: B1 chain with I186G
For B2, the residual binding activity with simvastatin (percent of the non-inhibited signal) in test [2] turned out to be 63%. Besides, the Kd in test [1] is 2.6 µM.
